A short description of the series: protein stability index of a GFP-peptide fusion (yeast GPS) (PSI 1-4); higher = more stable; sorted into four equal gates, so the index is relative within each strain. An outline of the steps:
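Tiled 17-residue yeast protein peptides were fused downstream of GFP in a plasmid that also expresses Cherry, and the pooled library was carried in yeast. Mid-log cultures in leucine-free medium were sorted into four equal gates by GFP/Cherry fluorescence ratio, and plasmids from each gate were PCR-amplified and Illumina-sequenced, with reads assigned to strains by barcodes. The protein stability index for each peptide was each gate's read frequency times its gate number, summed.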

± gives the uncertainty stated by the source.

For the sequence ARNLIEDEDDGESEKSS [RPC53], the protein stability index by setting is: (doa10∆) 3.06 ± 0.12; (pdr5∆) 3.68 ± 0.18; (ubr1∆) 3.29 ± 0.11.
NPIIENNVDNKYKSGGK [SSN2]: the protein stability index by setting is: (doa10∆) 2.92 ± 0.052; (pdr5∆) 3.01 ± 0.041; (san1∆) 3.04 ± 0.043; (ubr1∆) 3.07 ± 0.041.
With YDEDPYGFEDESAPITA [RPB2], the protein stability index by setting is: (doa10∆) 3.05 ± 0.071; (pdr5∆) 3.18 ± 0.054; (san1∆) 3.24 ± 0.048; (ubr1∆) 3.17 ± 0.065.
In the case of YNSVRPFGVSTIFGGVD [PRE10], the protein stability index by setting is: (doa10∆) 2.53 ± 0.083; (pdr5∆) 2.71 ± 0.068; (san1∆) 2.59 ± 0.14; (ubr1∆) 2.57 ± 0.045.
On to MPQSGTGVSVEAVDDVF [RPN11], for which the protein stability index (doa10∆) is 3.35 ± 0.11, the protein stability index (pdr5∆) was found to be 3.12 ± 0.11, the protein stability index (san1∆) is 3 ± 0.092 and the protein stability index (ubr1∆) came out at 3.19 ± 0.051.
On to FKYVSVRYEEKRELKQL [BRR2], for which the protein stability index is, setting by setting: (doa10∆) 2.63 ± 0.068; (pdr5∆) 2.93 ± 0.056; (san1∆) 2.93 ± 0.067; (ubr1∆) 3.13 ± 0.05.
As for SKMGAPWCVKPEYLAMY [ITC1], the protein stability index by setting is: (doa10∆) 2.92 ± 0.057; (pdr5∆) 3.23 ± 0.048; (san1∆) 3.1 ± 0.043; (ubr1∆) 3.11 ± 0.058.
For the sequence LTKTTVNISAVDNTTEQ [YCG1], the protein stability index is, setting by setting: (doa10∆) 3.25 ± 0.11; (pdr5∆) 3.29 ± 0.14; (san1∆) 2.88 ± 0.1; (ubr1∆) 3.24 ± 0.098.
For DNLGQTKIIMATNRPDT [RPT4], in that order: 2.76 ± 0.084, 2.56 ± 0.1, 2.79 ± 0.079 and 2.67 ± 0.079.
In the case of VWDKFAVNLLNCPHSDS [SSN2], the protein stability index (pdr5∆) is 2.81 ± 0.27.
Regarding NALEHKYFTESDIPVSE [SSN3], the protein stability index by setting is: (doa10∆) 2.3 ± 0.081; (pdr5∆) 2.75 ± 0.11; (san1∆) 2.76 ± 0.082; (ubr1∆) 2.94 ± 0.096.
In the case of STSENKISEGSAKPTFS [YOR098C/NUP1], the protein stability index (doa10∆) came out at 3.63 ± 0.18, the protein stability index (pdr5∆) stood at 2.52 ± 0.26, the protein stability index (san1∆) worked out at 2.8 ± 0.14 and the protein stability index (ubr1∆) stood at 3.17 ± 0.097.
With HGVLQGTSQNYGTATAD [MED1], the protein stability index came out at 3.2 ± 0.091 (doa10∆), 3.13 ± 0.076 (pdr5∆), 2.96 ± 0.078 (san1∆) and 3.14 ± 0.052 (ubr1∆).
SDEERDDEDDEHNPTIV [AAR2] returned a protein stability index (doa10∆) of 3.53 ± 0.086, a protein stability index (pdr5∆) of 3.32 ± 0.089, a protein stability index (san1∆) of 3.09 ± 0.071 and a protein stability index (ubr1∆) of 3.31 ± 0.11.
On to VDIQIINQYQLLYNLKN [SWI1], for which the protein stability index is 1.68 ± 0.031 (doa10∆), 1.54 ± 0.041 (pdr5∆), 1.49 ± 0.086 (san1∆) and 1.33 ± 0.033 (ubr1∆).
DLEGRANIFRIHSKSMS [RPT1] gave a protein stability index (san1∆) of 3.21 ± 0.25.
LLKDIFANNLKSAISNN [SIR4]: the protein stability index runs as follows: (doa10∆) 2.46 ± 0.044; (pdr5∆) 2.48 ± 0.042; (san1∆) 2.44 ± 0.043; (ubr1∆) 2.44 ± 0.037.
As for VVIDAKDHLLGRLASTI [RPL16B], the protein stability index (doa10∆) was determined as 1.33 ± 0.066, the protein stability index (pdr5∆) is 1.25 ± 0.07, the protein stability index (san1∆) was 1.17 ± 0.12 and the protein stability index (ubr1∆) was determined as 1.35 ± 0.078.
On to PLSLTHRDKNKMDMICR [DIS3], for which the protein stability index (doa10∆) stood at 3.24 ± 0.13, the protein stability index (pdr5∆) was 3.43 ± 0.16, the protein stability index (san1∆) was 3.23 ± 0.13 and the protein stability index (ubr1∆) came out at 3.16 ± 0.18.
In the case of KGRSYAYFMVGAMGLLS [RIP1], the protein stability index worked out at 2.39 ± 0.11 (doa10∆), 2.82 ± 0.12 (pdr5∆), 3.16 ± 0.2 (san1∆) and 2.98 ± 0.074 (ubr1∆).
As to TAIAHSIREQVHMYHKS [SNF5], the protein stability index is 1.89 ± 0.044 (doa10∆), 1.92 ± 0.047 (pdr5∆), 2.23 ± 0.069 (san1∆) and 2.12 ± 0.044 (ubr1∆).
As to VFLYFEDNAGVIANPKG [RPL23A], the protein stability index is, setting by setting: (doa10∆) 2.43 ± 0.11; (pdr5∆) 1.96 ± 0.051; (san1∆) 2.27 ± 0.12; (ubr1∆) 1.9 ± 0.047.
In the case of WGGFPLDISVFLLEKAG [TAF14], the protein stability index runs as follows: (doa10∆) 3.2 ± 0.11; (pdr5∆) 3.38 ± 0.067; (san1∆) 3.26 ± 0.06; (ubr1∆) 3.15 ± 0.075.
In the case of NFRTMQQQQMQQQQQQQ [SSN2], the protein stability index is, setting by setting: (pdr5∆) 3.15 ± 0.23; (san1∆) 2.37 ± 0.12.
For YIYSQETKSWINESAEN [MED1], the protein stability index runs as follows: (doa10∆) 2.58 ± 0.047; (pdr5∆) 2.66 ± 0.039; (san1∆) 2.46 ± 0.048; (ubr1∆) 2.48 ± 0.031.
VAMCFVINKLDRLILDL [SNU114]: the protein stability index by setting is: (doa10∆) 2.23 ± 0.055; (pdr5∆) 2.24 ± 0.056; (san1∆) 2.15 ± 0.096; (ubr1∆) 2.77 ± 0.04.

The record behind these values is the supplement of paper PMC9732359.
